Legend:
LlGH31_u1 = target: T1, LlGH31_u1 (Lactococcus cremoris, UniProt A2RM80); experiment: X-ray crystal structure of complex (soaked); type: binding; settings: 100 mM glucose soak, 45 min; subsite −1; both α- and β-anomers modelled
T1 construct: gene xylS; full length (no signal peptide), N-terminal His tag, pET28a, E. coli BL21(DE3); Tyr99 of the adjacent protomer reaches the active site
T1 sequence (A2RM80 1-739): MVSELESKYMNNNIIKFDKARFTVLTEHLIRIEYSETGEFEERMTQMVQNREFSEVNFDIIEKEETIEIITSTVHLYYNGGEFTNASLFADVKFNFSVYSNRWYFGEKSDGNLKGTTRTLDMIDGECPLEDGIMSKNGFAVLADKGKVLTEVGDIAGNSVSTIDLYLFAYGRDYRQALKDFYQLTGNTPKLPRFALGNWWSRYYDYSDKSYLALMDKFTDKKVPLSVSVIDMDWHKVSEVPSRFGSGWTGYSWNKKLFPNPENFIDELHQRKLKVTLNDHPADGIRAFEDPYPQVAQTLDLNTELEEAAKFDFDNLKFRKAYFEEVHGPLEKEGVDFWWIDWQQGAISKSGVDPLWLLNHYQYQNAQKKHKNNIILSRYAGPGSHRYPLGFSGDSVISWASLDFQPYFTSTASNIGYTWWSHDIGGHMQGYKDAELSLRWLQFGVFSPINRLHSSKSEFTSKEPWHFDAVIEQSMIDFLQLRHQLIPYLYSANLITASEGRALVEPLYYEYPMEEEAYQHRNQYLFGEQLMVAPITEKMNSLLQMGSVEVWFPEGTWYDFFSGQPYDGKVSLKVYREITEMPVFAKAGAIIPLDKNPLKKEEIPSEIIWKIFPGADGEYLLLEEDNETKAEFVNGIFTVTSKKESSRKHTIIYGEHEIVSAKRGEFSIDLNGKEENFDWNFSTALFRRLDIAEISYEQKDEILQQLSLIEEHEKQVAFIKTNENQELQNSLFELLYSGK

[1] = target: GH31_u1 protein from Lactococcus lactis subsp. cremoris MG1363 (LlGH31_u1), wild type (Lactococcus lactis subsp. cremoris MG1363); experiment: cryo-EM structure; single-particle analysis; 1.13 μM (as a hexamer) in 20 mM sodium phosphate buffer (pH 7.0), 300 mM NaCl
[2] = target: GH31_u1 protein from Lactococcus lactis subsp. cremoris MG1363 (LlGH31_u1), wild type (Lactococcus lactis subsp. cremoris MG1363); experiment: SEC; gel filtration on HiLoad 16/60 Superdex 200 prep grade for molecular weight determination; 20 mM sodium phosphate buffer (pH 7.0), 300 mM NaCl
[3] = target: GH31_u1 protein from Lactococcus lactis subsp. cremoris MG1363 (LlGH31_u1), wild type (Lactococcus lactis subsp. cremoris MG1363); experiment: crystal structure; hanging-drop vapor diffusion at 20 °C, PEG 3350, sodium citrate pH 7.0; crystal form 1 (P2_(1), six molecules in the asymmetric unit) and crystal form 2 (P6_(3)22, one molecule, hexamer by symmetry); unliganded, glucose-soaked or cocrystallised with 10 mM ligands
[4] = tested on: O=[N+]([O-])c1ccc(O[C@H]2O[C@H](CO)[C@@H](O)[C@H](O)[C@H]2O)cc1; experiment: purified protein; settings: 50 mM sodium phosphate pH 7.0, 50 mM NaCl
purified protein = substrate: O=[N+]([O-])c1ccc(O[C@H]2O[C@H](CO)[C@@H](O)[C@H](O)[C@H]2O)cc1; experiment: purified protein; settings: 50 mM sodium phosphate pH 7.0, 50 mM NaCl; remark: listed apart in the source

OC[C@H]1OC(O)[C@H](O)[C@@H](O)[C@@H]1O (some centres unmarked) [glucose]
X-ray crystal structure of complex (soaked) (LlGH31_u1): we determined the crystal structure of WT in complex with glucose (WT-Glc)

GH31_u1 protein from Lactococcus lactis subsp. cremoris MG1363 (LlGH31_u1), wild type (enzyme)
stoichiometry N [1]: 6 | stoichiometry N [2]: 6 | stoichiometry N [3]: 6

LlGH31_u1 (Lactococcus cremoris subsp. cremoris MG1363; Y99F)
Km [4]: 28 ± 0.8 mM

B1: LlGH31_u1 (Lactococcus cremoris subsp. cremoris MG1363) (protein)
chain: MVSELESKYMNNNIIKFDKARFTVLTEHLIRIEYSETGEFEERMTQMVQNREFSEVNFDIIEKEETIEIITSTVHLYYNGGEFTNASLFADVKFNFSVYSNRWYFGEKSDGNLKGTTRTLDMIDGECPLEDGIMSKNGFAVLADKGKVLTEVGDIAGNSVSTIDLYLFAYGRDYRQALKDFYQLTGNTPKLPRFALGNWWSRYYDYSDKSYLALMDKFTDKKVPLSVSVIDMDWHKVSEVPSRFGSGWTGYSWNKKLFPNPENFIDELHQRKLKVTLNDHPADGIRAFEDPYPQVAQTLDLNTELEEAAKFDFDNLKFRKAYFEEVHGPLEKEGVDFWWIDWQQGAISKSGVDPLWLLNHYQYQNAQKKHKNNIILSRYAGPGSHRYPLGFSGDSVISWASLDFQPYFTSTASNIGYTWWSHDIGGHMQGYKDAELSLRWLQFGVFSPINRLHSSKSEFTSKEPWHFDAVIEQSMIDFLQLRHQLIPYLYSANLITASEGRALVEPLYYEYPMEEEAYQHRNQYLFGEQLMVAPITEKMNSLLQMGSVEVWFPEGTWYDFFSGQPYDGKVSLKVYREITEMPVFAKAGAIIPLDKNPLKKEEIPSEIIWKIFPGADGEYLLLEEDNETKAEFVNGIFTVTSKKESSRKHTIIYGEHEIVSAKRGEFSIDLNGKEENFDWNFSTALFRRLDIAEISYEQKDEILQQLSLIEEHEKQVAFIKTNENQELQNSLFELLYSGK
Km (purified protein): 20 ± 0.8 mM | kcat (purified protein): 31 s⁻¹ | kcat/Km (purified protein): 1500 M⁻¹ s⁻¹
